Results: the RNAGym collection of RNA variant scans (doi:10.1093/molbev/msab373)

B1: Azoarcus group I ribozyme (parent)
chain: GUGCCUUGCGCCGGGAAACCACGCAAGGGAUGGUGUCAAAUUCGGCGAAACCUAAGCGCCCGCCCGGGCGUAUGGCAACGCCGAGCCAAGCUUCGGCGCCUGCGCCGAUGAAGGUGUAGAGACUAGACGGCACCCACCUAAGGCAAACGCUAUGGUGAAGGCAUAGUCCAGGGAGUGGCGAAAGUCACACAAACCGG

Variants of: B1
Test: reverse-splicing fitness (ratio to wild type); higher = more active; in vitro selection; Mg2+ level not given
How it was run: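 An in vitro group I ribozyme library with randomized positions was T7-transcribed and gel-purified. In triplicate, 10 pmol RNA in EPPS pH 7.5 was reacted with 50 pmoles of a 30-nt RNA substrate for 1 h at 37 °C across several added MgCl2 levels (1–48 mM), then stopped with EDTA. Products were reverse transcribed from a substrate-complementary primer, PCR-amplified and sequenced (HiSeq 4000). Fitness is a variant's read proportion after selection over that before, normalised to wild type.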

Row | Variant | reverse-splicing fitness
1 | C82U A120C C150U C169G U176G | 0.0038
2 | C82U A120C C150U C169U | 0.0165
3 | C82U A120C C150U C169U U176A | 0.0176
4 | C82U A120C C150U C169U U176C | 0.0177
5 | C82U A120C C150U C169U U176G | 0.00448
6 | C82U A120C C150U U176A | 0.0291
7 | C82U A120C C150U U176C | 0.0444
8 | C82U A120C C150U U176G | 0.00855
9 | C82U A120C C169A | 0.00809
10 | C82U A120C C169A U176A | 0.0143
11 | C82U A120C C169A U176C | 0.0121
12 | C82U A120C C169A U176G | 0.00409
13 | C82U A120C C169G | 0.00705
14 | C82U A120C C169G U176A | 0.0123
15 | C82U A120C C169G U176C | 0.0125
16 | C82U A120C C169G U176G | 0.00419
17 | C82U A120C C169U | 0.0213
18 | C82U A120C C169U U176A | 0.0188
19 | C82U A120C C169U U176C | 0.0166
20 | C82U A120C C169U U176G | 0.00414
21 | C82U A120C U176A | 0.048

Row | Variant | reverse-splicing fitness
22 | C82U A120C U176C | 0.0725
23 | C82U A120C U176G | 0.00931
24 | C82U A120G | 0.0259
25 | C82U A120G A145C | 0.0203
26 | C82U A120G A145C C150A | 0.00664
27 | C82U A120G A145C C150A C169A | 0.00745
28 | C82U A120G A145C C150A C169A U176A | 0.0124
29 | C82U A120G A145C C150A C169A U176C | 0.0049
30 | C82U A120G A145C C150A C169A U176G | 0.00326
31 | C82U A120G A145C C150A C169G | 0.00758
32 | C82U A120G A145C C150A C169G U176A | 0.0215
33 | C82U A120G A145C C150A C169G U176C | 0.0125
34 | C82U A120G A145C C150A C169G U176G | 0.00402
35 | C82U A120G A145C C150A C169U | 0.00698
36 | C82U A120G A145C C150A C169U U176A | 0.0218
37 | C82U A120G A145C C150A C169U U176C | 0.00972
38 | C82U A120G A145C C150A C169U U176G | 0.0041
39 | C82U A120G A145C C150A U176A | 0.0076
40 | C82U A120G A145C C150A U176C | 0.0066
41 | C82U A120G A145C C150A U176G | 0.00372
42 | C82U A120G A145C C150G | 0.00804

Row | Variant | reverse-splicing fitness
43 | C82U A120G A145C C150G C169A | 0.00904
44 | C82U A120G A145C C150G C169A U176A | 0.00717
45 | C82U A120G A145C C150G C169A U176C | 0.00565
46 | C82U A120G A145C C150G C169A U176G | 0.00406
47 | C82U A120G A145C C150G C169G | 0.00837
48 | C82U A120G A145C C150G C169G U176A | 0.00838
49 | C82U A120G A145C C150G C169G U176C | 0.00713
50 | C82U A120G A145C C150G C169G U176G | 0.00336
51 | C82U A120G A145C C150G C169U | 0.00822
52 | C82U A120G A145C C150G C169U U176A | 0.0158
53 | C82U A120G A145C C150G C169U U176C | 0.0104
54 | C82U A120G A145C C150G C169U U176G | 0.00443
55 | C82U A120G A145C C150G U176A | 0.00438
56 | C82U A120G A145C C150G U176C | 0.00608
57 | C82U A120G A145C C150G U176G | 0.00257
58 | C82U A120G A145C C150U | 0.0102
59 | C82U A120G A145C C150U C169A | 0.00913
60 | C82U A120G A145C C150U C169A U176A | 0.00991
61 | C82U A120G A145C C150U C169A U176C | 0.00527
62 | C82U A120G A145C C150U C169A U176G | 0.00346
63 | C82U A120G A145C C150U C169G | 0.00988

Row | Variant | reverse-splicing fitness
64 | C82U A120G A145C C150U C169G U176A | 0.0197
65 | C82U A120G A145C C150U C169G U176C | 0.0111
66 | C82U A120G A145C C150U C169G U176G | 0.0041
67 | C82U A120G A145C C150U C169U | 0.00884
68 | C82U A120G A145C C150U C169U U176A | 0.0235
69 | C82U A120G A145C C150U C169U U176C | 0.00975
70 | C82U A120G A145C C150U C169U U176G | 0.00351
71 | C82U A120G A145C C150U U176A | 0.00845
72 | C82U A120G A145C C150U U176C | 0.00744
73 | C82U A120G A145C C150U U176G | 0.00347
74 | C82U A120G A145C C169A | 0.014
75 | C82U A120G A145C C169A U176A | 0.00959
76 | C82U A120G A145C C169A U176C | 0.00742
77 | C82U A120G A145C C169A U176G | 0.00332
78 | C82U A120G A145C C169G | 0.0218
79 | C82U A120G A145C C169G U176A | 0.0276
80 | C82U A120G A145C C169G U176C | 0.0161
81 | C82U A120G A145C C169G U176G | 0.00391
82 | C82U A120G A145C C169U | 0.0172
83 | C82U A120G A145C C169U U176A | 0.0224
